In patent US20230137562A1, “TAU AGGREGATION INHIBITORS” (priority 2017, published 2023):
Several values for one entry are separate records, joined by “and”; a condition that tells them apart may be missing. Equal entries are not always repeated. Square brackets hold non-standard residues; d marks the D form. Ends that are not written are not given here. hArg = N=C(N)NCCCC[C@H](N)C(=O)O; Orn = NCCC[C@H](N)C(=O)O

How the values were obtained:
His-Tau40P301L Tau = His-Tau40P301L Tau (UniProt P10636-8 1-441); experiment: cell-based or functional assay
His-Tau40P301L Tau, sequence (P10636 other isoform, or with tags, fused parts or gaps limits assumed): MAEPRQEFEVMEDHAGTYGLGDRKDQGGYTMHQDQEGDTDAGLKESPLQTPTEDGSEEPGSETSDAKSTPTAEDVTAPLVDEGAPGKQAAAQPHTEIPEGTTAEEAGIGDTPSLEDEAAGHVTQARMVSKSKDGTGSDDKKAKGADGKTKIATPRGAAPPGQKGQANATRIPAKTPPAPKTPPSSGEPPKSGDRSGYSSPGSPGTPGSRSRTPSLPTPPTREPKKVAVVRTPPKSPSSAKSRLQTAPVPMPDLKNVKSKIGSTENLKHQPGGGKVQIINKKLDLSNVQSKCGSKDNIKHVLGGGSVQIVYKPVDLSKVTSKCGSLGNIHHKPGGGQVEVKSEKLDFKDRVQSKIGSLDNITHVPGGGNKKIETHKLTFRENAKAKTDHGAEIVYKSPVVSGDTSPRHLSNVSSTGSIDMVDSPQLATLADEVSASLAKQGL

Ac-VQIINK-NH2 = biological target: T1, Ac-VQIINK-NH2; experiment: cell-based or functional assay
T1 peptide: Ac-VQIINK-NH2

WRIRLWYR
IC50 (µM), Tau40 assay (ThT) (His-Tau40P301L Tau): 1.31 µM
IC50 (µM), VQIINK Inhibition (ThT) (Ac-VQIINK-NH2): 1.7 µM

WLKVQVRLW
IC50 (µM), Tau40 assay (ThT) (His-Tau40P301L Tau): 1.86 µM
IC50 (µM), VQIINK Inhibition (ThT) (Ac-VQIINK-NH2): 1.71 µM

WWIRIRYWR
IC50 (µM), Tau40 assay (ThT) (His-Tau40P301L Tau): 1.48 µM and 1.58 µM
IC50 (µM), VQIINK Inhibition (ThT) (Ac-VQIINK-NH2): 1.79 µM

WWIRIRYW
IC50 (µM), Tau40 assay (ThT) (His-Tau40P301L Tau): 1.1 µM and 1.38 µM
IC50 (µM), VQIINK Inhibition (ThT) (Ac-VQIINK-NH2): 1.92 µM

WAIRIRW
IC50 (µM), Tau40 assay (ThT) (His-Tau40P301L Tau): 1.72 µM
IC50 (µM), VQIINK Inhibition (ThT) (Ac-VQIINK-NH2): 1.94 µM

WRIRLWYW
IC50 (µM), Tau40 assay (ThT) (His-Tau40P301L Tau): 0.68 µM
IC50 (µM), VQIINK Inhibition (ThT) (Ac-VQIINK-NH2): 1.98 µM

RIWLRLW
IC50 (µM), Tau40 assay (ThT) (His-Tau40P301L Tau): 2.14 µM
IC50 (µM), VQIINK Inhibition (ThT) (Ac-VQIINK-NH2): 2.01 µM

RLRIWIW
IC50 (µM), Tau40 assay (ThT) (His-Tau40P301L Tau): 1.21 µM
IC50 (µM), VQIINK Inhibition (ThT) (Ac-VQIINK-NH2): 2.04 µM

WRIQIRW
IC50 (µM), Tau40 assay (ThT) (His-Tau40P301L Tau): 1.7 µM and 2.34 µM
IC50 (µM), VQIINK Inhibition (ThT) (Ac-VQIINK-NH2): 2.17 µM

WYRIWVRYW
IC50 (µM), Tau40 assay (ThT) (His-Tau40P301L Tau): 1.86 µM and 2.08 µM
IC50 (µM), VQIINK Inhibition (ThT) (Ac-VQIINK-NH2): 2.22 µM

RIWIRLW
IC50 (µM), Tau40 assay (ThT) (His-Tau40P301L Tau): 2.06 µM
IC50 (µM), VQIINK Inhibition (ThT) (Ac-VQIINK-NH2): 2.31 µM

WRIWLRYW
IC50 (µM), Tau40 assay (ThT) (His-Tau40P301L Tau): 2.05 µM
IC50 (µM), VQIINK Inhibition (ThT) (Ac-VQIINK-NH2): 2.32 µM

WYRIRLRYW
IC50 (µM), Tau40 assay (ThT) (His-Tau40P301L Tau): 1.13 µM and 1.21 µM
IC50 (µM), VQIINK Inhibition (ThT) (Ac-VQIINK-NH2): 2.98 µM

WRIRLYWW
IC50 (µM), Tau40 assay (ThT) (His-Tau40P301L Tau): 1.15 µM
IC50 (µM), VQIINK Inhibition (ThT) (Ac-VQIINK-NH2): 2.35 µM

WRIRIRYW
IC50 (µM), Tau40 assay (ThT) (His-Tau40P301L Tau): 1.22 µM and 1.33 µM and 1.37 µM
IC50 (µM), VQIINK Inhibition (ThT) (Ac-VQIINK-NH2): 2.44 µM and 3.77 µM

WY[Orn]IWI[Orn]W [WYOIWIOW]
IC50 (µM), Tau40 assay (ThT) (His-Tau40P301L Tau): 1.92 µM
IC50 (µM), VQIINK Inhibition (ThT) (Ac-VQIINK-NH2): 2.45 µM

WRITIRW
IC50 (µM), Tau40 assay (ThT) (His-Tau40P301L Tau): 1.99 µM
IC50 (µM), VQIINK Inhibition (ThT) (Ac-VQIINK-NH2): 2.64 µM

WKIKLKYW
IC50 (µM), Tau40 assay (ThT) (His-Tau40P301L Tau): 1.3 µM and 1.32 µM
IC50 (µM), VQIINK Inhibition (ThT) (Ac-VQIINK-NH2): 2.82 µM

RIRIFIF
IC50 (µM), Tau40 assay (ThT) (His-Tau40P301L Tau): 1.96 µM
IC50 (µM), VQIINK Inhibition (ThT) (Ac-VQIINK-NH2): 2.87 µM

WY[hArg]L[hArg]I[hArg]W [WY(hR)L(hR)I(hR)W]
IC50 (µM), Tau40 assay (ThT) (His-Tau40P301L Tau): 1.74 µM
IC50 (µM), VQIINK Inhibition (ThT) (Ac-VQIINK-NH2): 2.95 µM

WWIRIRYWL
IC50 (µM), Tau40 assay (ThT) (His-Tau40P301L Tau): 1.2 µM and 1.31 µM
IC50 (µM), VQIINK Inhibition (ThT) (Ac-VQIINK-NH2): 4.88 µM

WRLRIHW
IC50 (µM), Tau40 assay (ThT) (His-Tau40P301L Tau): 1.82 µM
IC50 (µM), VQIINK Inhibition (ThT) (Ac-VQIINK-NH2): 3.2 µM

WWIRLRYW
IC50 (µM), Tau40 assay (ThT) (His-Tau40P301L Tau): 1.32 µM and 1.53 µM
IC50 (µM), VQIINK Inhibition (ThT) (Ac-VQIINK-NH2): 3.24 µM
